Assay [1] concerns the target T1, Human-CEACAM6 (AB)-His (human, UniProt P40199 145-314).
T1 construct: Made in house, purified on a nickel column
Nature of the assay: ELISA on coated human CEACAM6 (AB), OD450. As to the method: (§1) The binding activity of the antibodies to human CEACAM5, human CEACAM6, and human CEACAM6 (AB) proteins was detected by ELISA. The plate coated with proteins was incubated at 4° C. overnight, and the 96-well ELISA plate blocked with 2% PBS-BSA was added with the antibody to be detected and incubated at 37° C. for 1 h. After washing 3 times with PBS containing 0.05% Tween, the absorbance value of each well was read at wavelength 450 nm with the gradient-diluted mouse-derived candidate antibody as the primary antibody and anti-mouse-IgG-FC-HRP as the secondary antibody, and the absorbance value of each well was read at wavelength 450 nm after the TMB color development.
Background: An ELISA detects its analyte on a solid surface through an enzyme-linked reagent.

For assay [2], the target named is T2, CEACAM5 on the surface of the tumor cells (HPAFII cells) (UniProt P06731 35-685).
T2 construct: whole, on cells
T2 sequence (looked up): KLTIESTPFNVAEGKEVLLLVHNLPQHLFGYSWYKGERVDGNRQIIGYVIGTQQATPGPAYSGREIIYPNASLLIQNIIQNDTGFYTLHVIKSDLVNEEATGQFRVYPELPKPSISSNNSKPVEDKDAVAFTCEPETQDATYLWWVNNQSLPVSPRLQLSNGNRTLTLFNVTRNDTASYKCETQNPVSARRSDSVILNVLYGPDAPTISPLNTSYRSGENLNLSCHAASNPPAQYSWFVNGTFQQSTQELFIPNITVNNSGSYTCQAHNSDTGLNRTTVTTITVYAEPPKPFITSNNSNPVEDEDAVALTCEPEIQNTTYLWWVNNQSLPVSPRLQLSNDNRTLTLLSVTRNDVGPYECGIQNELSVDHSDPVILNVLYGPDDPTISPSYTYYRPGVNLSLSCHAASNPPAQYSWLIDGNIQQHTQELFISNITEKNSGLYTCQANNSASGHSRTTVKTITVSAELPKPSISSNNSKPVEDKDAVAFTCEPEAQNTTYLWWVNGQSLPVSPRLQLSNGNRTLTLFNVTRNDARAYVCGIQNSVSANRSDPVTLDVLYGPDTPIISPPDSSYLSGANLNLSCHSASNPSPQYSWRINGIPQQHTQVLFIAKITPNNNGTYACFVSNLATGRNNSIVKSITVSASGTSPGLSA
Nature of the assay: flow cytometry on HPAFII cells (Mean-FITC); the cells carry CEACAM5 and CEACAM6, signal not divided between the two. The procedure:
(§2) The antibody to be tested was taken as the initial concentration of 200 nM and diluted 5-fold with 6 gradients. The HPAFII cells (From USTC […] FOR ADVANCED STUDIES) in the incubator were taken out, and the cell suspension was transferred to a 15 mL centrifuge tube, centrifuged, and counted by resuspension in PBS. A blank control group (Blank), a negative control group (NC), an experimental group, a positive control group and the irrelevant antibody group were kept. […] The cell suspension was spread in a 96-well plate according to about 3×10⁵ cells/well. Centrifugation (1000 rpm, 5 min) was performed, followed by washing with PBS, re-centrifugation, and repeated twice to remove media residues. The supernatant was discarded, 100 μL of primary antibody solution and irrelevant antibody solution were added to the experimental group and irrelevant antibody group, respectively, and the cells were resuspended and incubated at room temperature for 1 h. The blank group, and the negative control group were incubated with an equal amount of PBS.
(§3) After 1 h, PBS was added to wash twice. After the supernatant was discarded, 100 μL of fluorescent secondary antibody dilution (Mouse-derived secondary antibody from Abcam ab6785) was added to each sample group, except for the blank group which was added with 100 μL of PBS. After incubation at room temperature and protected from light for 0.5 h, centrifugation was performed and PBS added to wash the samples twice. After the supernatant was discarded, 120 μL of PBS was added to resuspend and sequentially flow cytometry was performed to detect the mean fluorescence intensity. The concentration of the antibody was logarithmically taken as the horizontal coordinate, and the Sigmoidaldose-response (VariableSlope) method (GraphPadPrism Software, GraphPadSoftware, San Diego, California) was chosen to perform a nonlinear regression to obtain the binding activity curves of the antibody on HPAFII cells.

For assay [3], the target named is T3, CEACAM6 on the surface of the tumor cells (HPAFII cells) (UniProt P40199 35-320).
T3 construct: whole, on cells
T3 sequence (looked up): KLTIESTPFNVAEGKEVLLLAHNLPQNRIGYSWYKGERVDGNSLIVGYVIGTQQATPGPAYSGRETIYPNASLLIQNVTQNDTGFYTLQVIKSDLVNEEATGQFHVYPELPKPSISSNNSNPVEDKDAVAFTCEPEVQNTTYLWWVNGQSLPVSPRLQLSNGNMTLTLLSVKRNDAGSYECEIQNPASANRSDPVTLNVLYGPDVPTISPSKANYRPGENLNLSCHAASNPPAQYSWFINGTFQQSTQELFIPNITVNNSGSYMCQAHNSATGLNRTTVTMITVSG
Described as above. As to the method: as §2, §3

The target of assay [4] is T1, Human-CEACAM6 (AB)-His. Nature of the assay: SPR (Biacore), antibody captured on CM5 chip, antigen as analyte, 1:1 model. The procedure:
(§4) The CM5 sensor chip was activated at a flow rate of 10 μL/min for 420 seconds. The channel was then injected with 30 μg/mL of anti-rat Fc IgG in 10 mM NaAc (pH 4.5) at a flow rate of 10 μL/min. The chip was inactivated with 1 M ethanolamine-hydrochloric acid (GE) for 420 seconds at a flow rate of 10 μL/min.
(§5) Candidate antibodies in running buffer 1×HBS-EP+ (10 mM HEPES, 150 mM NaCl, 3 mM EDTA, 0.05% Tween 20, pH 7.4) were captured onto Fc2 with anti-rat Fc IgG at a flow rate of 10 μL/min. The 10 nM human CEACAM5-his protein or CEACAM-6-his or CEACAM6 (AB)-his protein and running buffer were sequentially injected into Fc1-Fc2 at a flow rate of […], bound for 180 seconds, and then dissociated for 3600 seconds. 10 mM glycine (pH 1.5) was injected as regeneration buffer after each dissociation.
(§6) Result plots for the reference channel Fc1 and the buffer channel were subtracted from the test result plots. The experimental data fit the 1:1 binding model. The molecular weight of 110 KDa was used to calculate the molar concentration of CEACAM5 protein, 55 KDa for human CEACAM6-his, and 55 KDa for human CEACAM6 (AB)-his.
A general note: Surface plasmon resonance follows binding to a sensor surface in real time, without labels.

Assay [5] addresses T4, human CEACAM5-his (ACRO CE5-H5226) (human, UniProt P06731 35-685).
T4 construct: Bought protein; not shown: His tag
T4 sequence (looked up): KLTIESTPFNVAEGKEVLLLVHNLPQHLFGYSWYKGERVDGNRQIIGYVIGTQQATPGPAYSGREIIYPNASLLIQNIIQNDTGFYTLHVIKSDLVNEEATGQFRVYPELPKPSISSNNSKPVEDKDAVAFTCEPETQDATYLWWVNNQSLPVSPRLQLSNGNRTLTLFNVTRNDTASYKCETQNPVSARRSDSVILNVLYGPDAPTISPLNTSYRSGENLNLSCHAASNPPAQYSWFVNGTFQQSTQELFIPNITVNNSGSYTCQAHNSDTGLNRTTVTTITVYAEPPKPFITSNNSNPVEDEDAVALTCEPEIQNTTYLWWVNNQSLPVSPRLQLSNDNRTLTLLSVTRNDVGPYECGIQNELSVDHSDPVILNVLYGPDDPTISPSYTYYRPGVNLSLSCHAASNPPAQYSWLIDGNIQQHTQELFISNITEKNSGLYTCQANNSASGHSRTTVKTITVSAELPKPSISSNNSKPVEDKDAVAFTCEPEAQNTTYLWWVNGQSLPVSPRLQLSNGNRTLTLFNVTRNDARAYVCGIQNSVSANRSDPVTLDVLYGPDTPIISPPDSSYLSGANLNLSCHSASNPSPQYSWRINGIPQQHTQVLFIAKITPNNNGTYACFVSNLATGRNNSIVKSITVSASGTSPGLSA
The description is as above. The procedure:
as §4, §5, §6

Assay [6] addresses T5, human CEACAM6-his (ACRO CE6-H5223) (human, UniProt P40199 35-320).
T5 construct: Bought protein; not shown: His tag
T5 sequence (looked up): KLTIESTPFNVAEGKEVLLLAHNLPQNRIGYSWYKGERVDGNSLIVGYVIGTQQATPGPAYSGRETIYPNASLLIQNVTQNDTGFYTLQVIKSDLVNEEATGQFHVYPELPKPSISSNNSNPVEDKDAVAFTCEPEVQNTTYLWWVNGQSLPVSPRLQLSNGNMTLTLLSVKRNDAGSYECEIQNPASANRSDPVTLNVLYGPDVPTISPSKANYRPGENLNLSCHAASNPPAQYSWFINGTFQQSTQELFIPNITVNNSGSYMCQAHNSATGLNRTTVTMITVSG
The description is as above. The procedure: as §4, §5, §6

Assay [7] concerns the target T4, human CEACAM5-his (ACRO CE5-H5226). Kind of assay: ELISA on coated human CEACAM5, OD450. As to the method: as §1
Assay [8] concerns the target T6, mouse CEACAM5 (mouse, UniProt Q3UKK2 35-947, limits assumed).
T6 sequence (looked up): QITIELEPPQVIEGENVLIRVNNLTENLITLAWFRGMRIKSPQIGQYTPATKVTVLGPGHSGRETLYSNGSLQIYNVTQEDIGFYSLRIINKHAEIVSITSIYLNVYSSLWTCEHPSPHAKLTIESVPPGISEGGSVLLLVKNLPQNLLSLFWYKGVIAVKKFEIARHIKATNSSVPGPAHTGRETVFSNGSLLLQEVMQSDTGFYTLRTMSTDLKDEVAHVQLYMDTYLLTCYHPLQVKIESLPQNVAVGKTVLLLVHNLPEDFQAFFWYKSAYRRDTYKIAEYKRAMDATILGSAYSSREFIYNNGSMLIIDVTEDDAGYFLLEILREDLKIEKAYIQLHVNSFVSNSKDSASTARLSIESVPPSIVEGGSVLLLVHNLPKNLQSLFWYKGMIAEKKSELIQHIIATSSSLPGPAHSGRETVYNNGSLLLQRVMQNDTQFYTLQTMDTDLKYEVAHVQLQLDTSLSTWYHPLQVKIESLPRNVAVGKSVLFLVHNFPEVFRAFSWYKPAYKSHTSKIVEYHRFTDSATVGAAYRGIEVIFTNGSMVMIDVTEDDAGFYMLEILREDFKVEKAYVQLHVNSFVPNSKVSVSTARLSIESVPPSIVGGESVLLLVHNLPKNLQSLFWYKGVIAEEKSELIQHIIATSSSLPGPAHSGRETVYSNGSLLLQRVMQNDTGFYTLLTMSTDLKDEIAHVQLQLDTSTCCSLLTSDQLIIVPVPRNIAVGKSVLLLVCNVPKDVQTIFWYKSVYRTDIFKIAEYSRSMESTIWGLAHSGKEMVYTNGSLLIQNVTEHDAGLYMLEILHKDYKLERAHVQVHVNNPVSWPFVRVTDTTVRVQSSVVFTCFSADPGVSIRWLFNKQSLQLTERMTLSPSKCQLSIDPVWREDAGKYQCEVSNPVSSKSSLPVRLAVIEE
Kind of assay: ELISA on coated protein, OD450. As to the method:
The affinity of the antibodies to monkey CEACAM5, monkey CEACAM6, and mouse CEACAM5 proteins was determined by ELISA. The plates encapsulated with […] proteins were incubated at 4° C. overnight, and the antibodies to be detected were added to 96-well ELISA plates after being blocked with 2% PBS-BSA and incubated at 37° C. for 1 h. After washing 3 times with PBS containing 0.05% Tween, the absorbance value of each well was read at wavelength 450 nm with the antibody to be detected as the primary antibody and Goat anti-mouse IgG-FC-HRP as the secondary antibody, and the absorbance value of each well was read at wavelength 450 nm after the TMB color development. The specific binding to CEACAM5 and CEACAM6 of mouse and monkey was detected by Elisa method.

T1 sequence (P40199 other isoform, or with tags, fused parts or gaps limits assumed): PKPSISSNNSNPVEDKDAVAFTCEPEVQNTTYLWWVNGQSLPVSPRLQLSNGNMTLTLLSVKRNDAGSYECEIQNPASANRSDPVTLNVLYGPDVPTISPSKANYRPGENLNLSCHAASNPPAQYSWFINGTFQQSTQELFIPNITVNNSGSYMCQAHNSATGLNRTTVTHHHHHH

B1: Antibody 7 (antibody, V domains shown)
VH: QIQLVQSGPELKKPGETVKISCKASGYTFTDYGMNWVKQAPGKGLKWMGWINTYTGEPTYPDDFKGRFAFSLETSATTAYLQINNLKNEDTATYFCSRGDLLVRLDNWGQGTTLTVSS
VL: DIQMTQSPSSLSASLGGKVTITCKASQDINKYISWYQHKPGKGPRLLIHYTSTLQSGIPSRFSGSGSGRDYSFSISNLEPEDIATYYCLQYDYLRTFGGGTKLEIK
notes: Mouse-derived hybridoma antibody; also called mouse-derived antibody 7
As usually defined, the EC50 (read off the curve) is the concentration that produces a half-maximal response. A low value points to a more potent agent. As to B1, the “EC50 (read off the curve)” value in assay [1] was approximately 0.01 µg/mL; in assay [2], approximately 2 nM; in assay [3] it was approximately 2 nM.

B2: Antibody 13 (antibody, V domains shown)
VH: EVKLVESGGGLVQPGGSLSLSCTASGFTLTDYYMSWVRQPPGRALEWLALIRNKVNGYTIEYSASVKGRFTISRDNSQSILYLQMNALRAEDSATYYCARDIGIRWYFDVWGAGTTVTVSS
VL: QIVLSQSPAILSASPGEKVTMTCRASSSVSYMHWYQQKPGSSPKPWIYATSNLASGVPARFSGSGSGTSYSLTISRMEAEDAATYYCQQWSGNPPTFGGGTKLEIK
notes: Mouse-derived hybridoma antibody; also called mouse-derived antibody 13
One may read the Kd as the free concentration of one partner at which half of the binding sites on the other are occupied at equilibrium, for simple one-to-one binding. A higher Kd goes with weaker binding. Take B2: the “EC50 (read off the curve)” value in assay [1] is approximately 0.02 µg/mL; in assay [7] it was approximately 0.03 µg/mL. The Kd in assay [4] came out at 4.51 nM; in assay [5] it was 1.36 nM; in assay [6], 37.4 nM. The OD in assay [8] came to 0.15 OD.

For the origin of these results see US20250250335A1 (SHENGHE CHINA BIOPHARMACEUTICAL, published 2025).
